Assay [1] concerns the target T1, full-length human SIRPαV1 D→N on Expi-CHO cells (human, UniProt P78324 31-504).
T1 construct: the entry already carries the change (PDDV to PDNV)
Description: flow cytometry, Expi-CHO cells. As to the method:
(§1) Expi-CHO parental cells are transduced with lentiviruses containing either full-length wild-type human SIRPαV1 allele (NP_542970.1) or full-length human SIRPαV1 with amino acid point mutations (Table 56) and sorted to achieve matching expression levels. These cells are blocked with donkey IgG and incubated on ice with increasing concentrations of antibodies for 60 minutes, washed and stained with AF647-conjugated donkey F(ab′)₂ anti-human IgG antibodies. Stained cells are washed, fixed, and analyzed by flow cytometry. Median fluorescent intensity is determined and used as a measure of antibody binding.
On the technique in general: A flow cytometer gives signals particle by particle.

The target in assay [2] is T2, full-length human SIRPαV1 DD→EN on Expi-CHO cells (human, UniProt P78324 31-504).
T2 construct: the entry already carries the change (PDDV to PENV)
T2 sequence (P78324 31-504 D130E/D131N): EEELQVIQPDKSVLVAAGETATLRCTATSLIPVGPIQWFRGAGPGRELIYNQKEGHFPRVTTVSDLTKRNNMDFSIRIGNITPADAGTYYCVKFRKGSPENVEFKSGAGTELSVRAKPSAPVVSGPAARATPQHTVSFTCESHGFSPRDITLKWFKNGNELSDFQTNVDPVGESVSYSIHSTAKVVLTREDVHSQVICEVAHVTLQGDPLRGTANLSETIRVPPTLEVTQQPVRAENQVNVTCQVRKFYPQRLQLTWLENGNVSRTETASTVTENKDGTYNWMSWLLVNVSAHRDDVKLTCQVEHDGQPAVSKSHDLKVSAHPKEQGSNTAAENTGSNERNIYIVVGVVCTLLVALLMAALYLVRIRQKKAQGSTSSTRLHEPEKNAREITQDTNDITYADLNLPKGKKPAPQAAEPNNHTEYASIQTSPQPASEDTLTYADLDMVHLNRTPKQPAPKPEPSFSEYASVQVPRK
Description: flow cytometry, Expi-CHO cells. How it is done: as §1

The target in assay [3] is T3, full-length human SIRPβL (NP_001129316.1) on cells (human, UniProt Q5TFQ8 30-398).
T3 construct: one molecule for U937 SIRPα-KO transfectants (NP_001129316.1) and Expi-CHO transfectants (Q5TFQ8); also called SIRPβ1v3; βL WT
T3 sequence (Q5TFQ8 30-398): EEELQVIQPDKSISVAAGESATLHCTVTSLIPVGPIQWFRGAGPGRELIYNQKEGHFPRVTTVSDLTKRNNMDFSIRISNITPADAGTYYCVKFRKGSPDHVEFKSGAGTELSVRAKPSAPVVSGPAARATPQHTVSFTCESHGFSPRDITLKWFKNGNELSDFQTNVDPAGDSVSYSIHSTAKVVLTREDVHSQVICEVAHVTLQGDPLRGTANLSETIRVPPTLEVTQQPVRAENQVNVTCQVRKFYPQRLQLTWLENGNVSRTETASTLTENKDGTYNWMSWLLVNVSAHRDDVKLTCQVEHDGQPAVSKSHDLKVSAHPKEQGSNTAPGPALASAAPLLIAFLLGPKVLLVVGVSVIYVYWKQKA
Description: flow cytometry, Expi-CHO cells. In outline:
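Lentivirus-transduced Expi-CHO cells expressing wild-type or single point-mutant SIRPβL, sorted to matched expression, blocked with donkey IgG and incubated on ice 60 min with increasing antibody concentrations. Detection with AF647 anti-human IgG F(ab′)₂ after washing and fixation; median fluorescence intensity taken as binding.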

Assay [4] deals with T4, full-length human SIRPαV2 (CAA71403.1) on cells (human, UniProt P78324 31-504).
T4 construct: one molecule for CHO-K1 and Expi-CHO transfectants (CAA71403.1) and for endogenous V2 on THP-1 cells and on CD14+ monocytes of V2/V2 donors; also called CHO-hSIRPαV2; αV2 WT
T4 sequence (P78324 other isoform, or with tags, fused parts or gaps): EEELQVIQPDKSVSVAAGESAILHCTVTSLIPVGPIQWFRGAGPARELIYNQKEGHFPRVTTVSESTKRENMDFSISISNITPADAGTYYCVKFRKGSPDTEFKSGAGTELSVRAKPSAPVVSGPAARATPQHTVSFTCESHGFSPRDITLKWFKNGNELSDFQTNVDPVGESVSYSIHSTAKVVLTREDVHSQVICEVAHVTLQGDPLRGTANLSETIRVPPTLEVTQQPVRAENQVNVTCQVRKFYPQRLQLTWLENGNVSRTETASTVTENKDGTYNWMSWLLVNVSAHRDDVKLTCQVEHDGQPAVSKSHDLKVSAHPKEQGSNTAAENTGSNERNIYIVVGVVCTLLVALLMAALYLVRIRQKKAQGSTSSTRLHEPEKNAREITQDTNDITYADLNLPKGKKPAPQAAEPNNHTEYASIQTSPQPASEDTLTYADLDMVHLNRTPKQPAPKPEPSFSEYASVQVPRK
Description: flow cytometry, CHO-K1 cells. As to the method:
Antibody binding to cells expressing SIRPα is evaluated by flow cytometry. CHO-K1 parental cells (negative control), CHO-K1 cells expressing full-length human SIRPαV1 (NP_542970.1) or CHO-K1 cells expressing full-length human SIRPαV2 (CAA71403.1) are blocked with donkey IgG and incubated on ice with increasing concentrations of antibodies for 60 minutes, washed and stained with AF647-conjugated donkey F(ab′)₂ anti-human IgG secondary reagent. Cells are washed, fixed, and analyzed by flow cytometry. Median fluorescent intensity is determined and used as a measure of antibody binding.

Assay [5] concerns the target T5, full-length human SIRPγ E→D on Expi-CHO cells (human, UniProt Q9P1W8 29-387).
T5 construct: the entry already carries the change (PENV to PDNV)
Description: flow cytometry, Expi-CHO cells expressing full-length human SIRPγ E→D. How it is done: Expi-CHO parental cells are transduced with lentiviruses containing either full-length wild-type human SIRPγ ([…]) or full-length human SIRPγ with amino acid point mutations (Table 64) and sorted to achieve matching expression levels. These cells are blocked with donkey IgG and incubated on ice with increasing concentrations of antibodies for 60 minutes, washed and stained with AF647-conjugated donkey F(ab′)₂ anti-human IgG antibodies. Stained cells are washed, fixed, and analyzed by flow cytometry. Median fluorescent intensity is determined and used as a measure of antibody binding.

Assay [6] concerns the target T6, full-length human SIRPβ1 (NP_006056.2) on cells (human, UniProt O00241 30-398).
T6 construct: also called β1 WT
Briefly: flow cytometry, Expi-CHO cells. As to the method:
These cells are blocked with donkey IgG and incubated on ice with increasing concentrations of antibodies for 60 minutes, washed and stained with AF647-conjugated donkey F(ab′)₂ anti-human IgG antibodies. Stained cells are washed, fixed, and analyzed by flow cytometry. Median fluorescent intensity is determined and used as a measure of antibody binding.

The target of assay [7] is T7, full-length cynomolgus SIRPα (EGM-02252) on CHO cells, clone H3A9 (cynomolgus monkey, UniProt A0A2K5VYQ9).
T7 construct: whole, on cells; also called EGM-02252 Clone H3A9
T7 sequence: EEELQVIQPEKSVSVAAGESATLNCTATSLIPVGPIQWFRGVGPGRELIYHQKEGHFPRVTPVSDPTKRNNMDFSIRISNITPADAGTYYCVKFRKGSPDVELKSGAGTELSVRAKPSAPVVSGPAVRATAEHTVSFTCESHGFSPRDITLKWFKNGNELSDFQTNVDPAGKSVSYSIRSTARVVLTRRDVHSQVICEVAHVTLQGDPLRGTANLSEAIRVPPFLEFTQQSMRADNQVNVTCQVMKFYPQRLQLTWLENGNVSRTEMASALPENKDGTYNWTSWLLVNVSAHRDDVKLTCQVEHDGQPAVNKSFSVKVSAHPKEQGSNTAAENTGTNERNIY
Briefly: flow cytometry, CHO cells. How it is done: (§2) Antibody binding to cells expressing cynomolgus (cyno) SIRPα was evaluated by flow cytometry. CHO-K1 cells expressing full-length cyno SIRPα; derived from protein sequence accession numbers (A) EGM-02252; (B) XP_015313155; or (C) NP_001271679, are blocked with donkey IgG and incubated on ice with increasing concentrations of antibodies for 60 minutes, washed and stained with AF647-conjugated donkey F(ab′)₂ anti-human IgG secondary reagent. Cells are washed, fixed, and analyzed by flow cytometry. Median fluorescent intensity is determined and used as a measure of antibody binding.

In assay [8] the target is T8, full-length cynomolgus SIRPα (NP_001271679) on CHO cells, clone HC6 (cynomolgus monkey, UniProt A0A2K5VYQ9).
T8 construct: whole, on cells; also called NP_001271679 Clone HC6
T8 sequence: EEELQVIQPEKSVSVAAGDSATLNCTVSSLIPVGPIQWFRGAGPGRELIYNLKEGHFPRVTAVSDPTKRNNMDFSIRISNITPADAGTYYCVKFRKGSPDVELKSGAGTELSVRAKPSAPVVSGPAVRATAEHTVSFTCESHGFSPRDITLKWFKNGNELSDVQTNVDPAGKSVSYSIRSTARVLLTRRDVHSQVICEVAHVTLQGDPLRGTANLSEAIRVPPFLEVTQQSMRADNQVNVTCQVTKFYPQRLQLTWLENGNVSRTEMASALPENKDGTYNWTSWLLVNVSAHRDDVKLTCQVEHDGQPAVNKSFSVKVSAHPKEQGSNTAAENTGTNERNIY
Description: flow cytometry, CHO cells. As to the method: as §2

T6 sequence (O00241 30-398): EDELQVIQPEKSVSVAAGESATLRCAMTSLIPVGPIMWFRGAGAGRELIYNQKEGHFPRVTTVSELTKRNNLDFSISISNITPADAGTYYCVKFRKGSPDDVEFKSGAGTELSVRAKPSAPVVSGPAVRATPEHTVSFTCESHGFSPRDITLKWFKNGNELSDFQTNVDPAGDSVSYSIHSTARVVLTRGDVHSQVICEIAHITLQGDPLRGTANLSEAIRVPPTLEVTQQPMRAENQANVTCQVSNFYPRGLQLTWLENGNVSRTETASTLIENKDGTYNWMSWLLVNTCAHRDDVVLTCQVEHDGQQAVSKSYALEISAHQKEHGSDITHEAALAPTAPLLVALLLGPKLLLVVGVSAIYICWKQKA
T1 sequence (P78324 31-504 D131N): as the sequence (P78324 31-504 D130E/D131N) above, with E100D counted along it
T5 sequence (Q9P1W8 29-387 E128D): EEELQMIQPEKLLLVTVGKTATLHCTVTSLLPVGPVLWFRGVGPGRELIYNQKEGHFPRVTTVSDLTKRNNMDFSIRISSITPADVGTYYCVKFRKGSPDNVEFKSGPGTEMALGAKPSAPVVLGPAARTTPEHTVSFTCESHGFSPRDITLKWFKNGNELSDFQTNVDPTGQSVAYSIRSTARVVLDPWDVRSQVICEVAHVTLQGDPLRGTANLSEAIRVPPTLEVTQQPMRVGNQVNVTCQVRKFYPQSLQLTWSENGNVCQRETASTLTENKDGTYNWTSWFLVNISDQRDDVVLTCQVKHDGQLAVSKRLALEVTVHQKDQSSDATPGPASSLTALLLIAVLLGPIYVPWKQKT

B1: Antibody E (antibody, human IgG1, kappa, L234A L235A)
heavy: not shown
light: DIVMTQSPLSLPVTPGEPASISCKSSQSLLYSNGYNYLDWYLQRPGQSPQLLIYLGSNRASGVPDRFSGSGSGTDFTLKISRVEAEDVGVFYCMQALQTPLTFGGGTKVEIKRTVAAPSVFIFPPSDEQLKSGTASVVCLLNNFYPREAKVQWKVDNALQSGNSQESVTEQDSKDSTYSLSSTLTLSKADYEKHKVYACEVTHQGLSSPVTKSFNRGEC
By EC50 is commonly meant the concentration needed to bring the measured effect to its halfway point. Low readings indicate greater potency, high ones weaker potency. B1: the EC50 turned out to be 0.4 nM in assay [1], 0.4 nM in assay [2], 1 nM in assay [3] and 0.9 nM in assay [4]. The binding result in assay [5] was “no binding (tested: about 67 nM)”.

B2: Antibody E22 (antibody, human IgG1, kappa, L234A L235A, V domains shown)
VH: QVQLQESGPGLVKPSETLSLTCTVSGGSIRDYYWSWIRQPPGKGLEWIGFIYYNGRTFYQSSLKSRVTISLDTSKNQFSLKMTSVTAADTAVYYCARVRAYSGIGLDGTDVWGQGTTVTVSS
VL: DIVMTQSPLSLPVTPGEPASISCRSSQSLLYSTGYTYLDWYLQRPGQSPQLLIYGGSSRASGVPDRFSGSGSGTDFTLKISRVEAEDVGVFYCGQALQTPLTFGQGTKVEIKR
Consider B2, for which the values for the EC50 in assay [1], in assay [2] and in assay [3] were 0.8 nM, 0.6 nM and 1.2 nM, respectively. Besides, the binding result in assay [5] was “no binding (tested: about 67 nM)”.

B3: Antibody A (antibody, human IgG1, kappa, L234A L235A)
heavy: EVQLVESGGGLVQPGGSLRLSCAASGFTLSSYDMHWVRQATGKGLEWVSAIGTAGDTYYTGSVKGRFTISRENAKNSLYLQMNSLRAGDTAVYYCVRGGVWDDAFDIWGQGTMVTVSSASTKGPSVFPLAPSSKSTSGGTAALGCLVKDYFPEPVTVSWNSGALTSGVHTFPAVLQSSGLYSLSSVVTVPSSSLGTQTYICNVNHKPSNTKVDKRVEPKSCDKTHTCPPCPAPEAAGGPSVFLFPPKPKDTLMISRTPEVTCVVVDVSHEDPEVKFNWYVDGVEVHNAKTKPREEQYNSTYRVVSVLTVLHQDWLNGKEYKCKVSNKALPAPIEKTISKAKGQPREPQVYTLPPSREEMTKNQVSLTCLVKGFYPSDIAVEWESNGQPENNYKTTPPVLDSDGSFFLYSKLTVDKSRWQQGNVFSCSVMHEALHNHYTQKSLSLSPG
light: DIQMTQSPSSLSASVGDRVTITCRASQDINNYLAWFQQKPGKAPKSLIYTASSLHSGVPSKFSGSGSGTDFTLTISSLQPEDFATYYCQQYVSYPYTFGQGTKLEIKRTVAAPSVFIFPPSDEQLKSGTASVVCLLNNFYPREAKVQWKVDNALQSGNSQESVTEQDSKDSTYSLSSTLTLSKADYEKHKVYACEVTHQGLSSPVTKSFNRGEC
Take B3: the concentration giving a half-maximal response (EC50) in assay [6] turned out to be 1.6 nM; in assay [7], 1.9 nM; in assay [8], 4.5 nM. The binding result in assay [5] was “no binding (tested: about 67 nM)”.

B4: Antibody A10 (antibody, human IgG1, kappa, L234A L235A)
heavy: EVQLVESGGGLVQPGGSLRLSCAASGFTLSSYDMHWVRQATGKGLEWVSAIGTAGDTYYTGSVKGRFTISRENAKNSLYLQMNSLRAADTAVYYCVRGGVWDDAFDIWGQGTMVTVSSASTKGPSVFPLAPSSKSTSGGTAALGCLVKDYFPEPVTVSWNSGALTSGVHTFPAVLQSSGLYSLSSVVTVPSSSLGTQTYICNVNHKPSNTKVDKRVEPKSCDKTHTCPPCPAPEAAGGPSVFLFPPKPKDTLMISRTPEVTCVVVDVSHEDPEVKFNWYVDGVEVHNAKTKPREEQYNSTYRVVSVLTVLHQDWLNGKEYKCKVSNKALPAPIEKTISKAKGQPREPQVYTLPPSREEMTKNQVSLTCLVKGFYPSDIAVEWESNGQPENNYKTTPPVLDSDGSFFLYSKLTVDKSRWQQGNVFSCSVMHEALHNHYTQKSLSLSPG
light: DIQMTQSPSSLSASVGDRVTITCRASQDINNYLAWFQQKPGKAPKSLIYTASSLHSGVPSKFSGSGSGTDFTLTISSLQPEDFATYYCQQYVSYPYTFGQGTKLEIKRTVAAPSVFIFPPSDEQLKSGTASVVCLLNNFYPREAKVQWKVDNALQSGNSQESVTEQDSKDSTYSLSSTLTLSKADYEKHKVYACEVTHQGLSSPVTKSFNRGEC
Regarding B4, the EC50 in assay [6] is 1.6 nM; in assay [7], 1.5 nM; in assay [8], 3.7 nM. Besides, the binding result in assay [5] is given as “no binding (tested: about 67 nM)”.

B5: Antibody C (antibody, human IgG1, kappa, L234A L235A, V domains shown)
VH: EVQLVESGGGLVQPGGSLRLSCAASGFTFSSYDMHWVRQATGKGLEWVSVIGIAGDTYYPGSVKGRFTISRENAKNSLYLQMNSLRVGDTAVYYCARGGSWDDAFDIWGQGTMVTVSS
VL: DIQMTQSPSSLSASIGDKVTITCRASQDINNYLAWFQQKPGKAPKSLIYTASSLQSGVPSKFSGSGSGTDFTLTISSLQPEDFATYYCQQYVSYPYTFGQGTKLEIKR
With B5, the EC50 in assay [1] came to 2.7 nM; in assay [2] it was 1.1 nM; in assay [6], 0.2 nM; in assay [4] it was 0.5 nM.

B6: Antibody B (antibody, human IgG1, kappa, L234A L235A, V domains shown)
VH: QVQLVQSGAEVKKPGASVKVSCKASGYTFTGNYMHWVRQAPGQGLEWMGWINPNSGGTNYAQKFQGRVTMTRDTSISTAYMELSRLRSDDTAVYYCVSGSGWYENYYYYGMDVWGQGTTVTVSS
VL: DIQMTQSPSSVSASVGDRVTITCRASQGISSWLAWYQQKPGKAPKLLIYAESSLQSGVPSRFSGSGSGTDFTLTISSLQPEDFATYYCQQANSFPLTFGGGTKVEIKR
Take B6: the EC50 in assay [4] came out at 14.2 nM.

B7: Antibody D (antibody, human IgG1, kappa, L234A L235A, V domains shown)
VH: EVQLVESGGGLVQPGGSLRLSCAASGFTFSSFDMHWVRQPTGKGLEWVSTIGIAGDTYFPGSVKGRFTISRENAKNSLYLQMNSLRAGDTAVYYCARGGNWDDALDIWGQGTMVTVSS
VL: DIQMTQSPSSLSASVGDRVTITCRASQDINNYLAWFQQKPGKAPKSLIYTASSLQSGVPSKFSGSGSGTDFTLTISSLQPEDFATYYCQQYNTYPYTFGQGTKLEIKR
With B7, the EC50 in assay [1] was 9.6 nM; in assay [2], 6.6 nM; in assay [6], 0.2 nM; in assay [4] it was 0.5 nM.

B8: Anti-SIRPα antibody KWAR23 (antibody, V domains shown)
VH: EVQLQQSGAELVKPGASVKLSCTASGFNIKDYYIHWVQQRTEQGLEWIGRIDPEDGETKYAPKFQDKATITADTSSNTAYLHLSSLTSEDTAVYYCARWGAYWGQGTLVTVSS
VL: QIVLTQSPAIMSASPGEKVTLTCSASSSVSSSYLYWYQQKPGSSPKLWIYSTSNLASGVPARFSGSGSGTSYSLTISSMEAEDAASYFCHQWSSYPRTFGAGTKLELK
For the molecule B8, the EC50 in assay [1] was 0.2 nM; in assay [2], 0.2 nM; in assay [6], 0.2 nM; in assay [3], 1 nM; in assay [7], 0.9 nM; in assay [8], 2 nM. In assay [4], this molecule returned an EC50 of 0.5 nM.

(Values after patent US20230012273A1 (Boehringer Ingelheim, published 2023).)
